Experimental data taken from US20200199533A1 (KING ABDULLAH UNIVERSITY OF SCIENCE AND TECHNOLOGY, published 2020).

B1: CD34, native glycoprotein from human HSPCs (KG1a, CD34^pos-BM, CD34^pos-UCB, CD34^pos-AML) (ligand, UniProt P28906 32-385, looked up)
chain: SLDNNGTATPELPTQGTFSNVSTNVSYQETTTPSTLGSTSLHPVSQHGNEATTNITETTVKFTSTSVITSVYGNTNSSVQSQTSVISTVFTTPANVSTPETTLKPSLSPGNVSDLSTTSTSLATSPTKPYTSSSPILSDIKAEIKCSGIREVKLTQGICLEQNKTSSCAEFKKDRGEGLARVLCGEEQADADAGAQVCSLLLAQSEVRPQCLLLVLANRTEISSKLQLMKKHQSDLKKLGILDFTEQDVASHQSYSQKTLIALVTSGALLAVLGITGYFLMNRRSWSPTGERLGEDPYYTENGGGQGYSSGPGTSPEAQGKASVNRGAQENGTGQATSRNGHSARQHVVADTEL
modifications: native glycosylation (about 120-130 kDa form); sialylated O-glycans and tyrosine sulfation are shown to matter for selectin binding
notes: mature; also called E-selL CD34

Assays:
[1] = molecular target: CD44 (HCELL), native glycoprotein from human HSPCs (KG1a, CD34^pos fraction) (human) (UniProt P16070); assay: SPR, dissociation of captured CD44 from immobilized Hermes-3 during the wash after the lysate injection, s^-1 as in paragraph 58; fits the 8.6-fold ratio of paragraph 58
[2] = molecular target: CD44 (HCELL), native glycoprotein from human HSPCs (KG1a, CD34^pos fraction) (human) (UniProt P16070); assay: SPR, capture of CD44 from KG1a lysate on immobilized Hermes-3, before normalization
[3] = molecular target: CD44 (HCELL), native glycoprotein from human HSPCs (KG1a, CD34^pos fraction) (human) (UniProt P16070); assay: SPR, capture of CD44 from KG1a lysate on immobilized Hermes-3, estimated from Equation 1
[4] = molecular target: CD34, native glycoprotein from human HSPCs (KG1a, CD34^pos-BM, CD34^pos-UCB, CD34^pos-AML) (human) (UniProt P28906); assay: Stamper-Woodruff assay, CHO-E cells on CD34 immunoprecipitate from KG1a
[5] = molecular target: CD34, native glycoprotein from human HSPCs (KG1a, CD34^pos-BM, CD34^pos-UCB, CD34^pos-AML) (human) (UniProt P28906); assay: Stamper-Woodruff assay, CHO-E cells on CD34 immunoprecipitate from CD34^pos-BM
[6] = molecular target: CD34, PNGaseF-treated (human) (UniProt P28906); assay: SPR; CD34 captured on 4H11 from PNGaseF-treated KG1a lysate; koff-apparent similar to the control
[7] = molecular target: CD34, native glycoprotein from human HSPCs (KG1a, CD34^pos-BM, CD34^pos-UCB, CD34^pos-AML) (human) (UniProt P28906); assay: Stamper-Woodruff assay, CHO-P cells on CD34 immunoprecipitate from KG1a
[8] = molecular target: CD34, native glycoprotein from human HSPCs (KG1a, CD34^pos-BM, CD34^pos-UCB, CD34^pos-AML) (human) (UniProt P28906); assay: Stamper-Woodruff assay, CHO-P cells on CD34 immunoprecipitate from CD34^pos-BM
[9] = molecular target: T1, PSGL-1, native glycoprotein from human HSPCs (KG1a, CD34^pos-BM) (human, UniProt Q14242 42-412, native glycosylation and tyrosine sulfation); assay: CD34 immunoprecipitation, Western blot for PSGL-1 (KPL-1-mAb)
T1 construct: mature; also called P-selectin glycoprotein ligand-1
T1 sequence (looked up): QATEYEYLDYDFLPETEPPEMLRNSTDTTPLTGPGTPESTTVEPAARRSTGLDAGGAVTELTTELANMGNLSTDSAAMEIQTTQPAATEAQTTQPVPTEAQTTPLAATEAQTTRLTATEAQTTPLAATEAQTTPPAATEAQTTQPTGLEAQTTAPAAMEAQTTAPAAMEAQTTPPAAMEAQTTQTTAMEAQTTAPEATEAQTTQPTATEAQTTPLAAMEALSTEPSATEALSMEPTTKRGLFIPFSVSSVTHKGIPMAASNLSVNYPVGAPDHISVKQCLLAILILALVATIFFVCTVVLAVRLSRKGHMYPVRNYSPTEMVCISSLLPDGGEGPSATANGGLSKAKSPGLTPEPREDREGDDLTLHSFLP
Text: FIG. 7A is an autoradiograph of Western blots of P-Ig immunoprecipitates from KG1a and CD34^pos-BM lysates probing for CD34 (QBend-10 and EP373Y mAb) or PSGL-1 using KPL-1-mAb. Note that CD34 immunoprecipitates were free from any PSGL-1 contamination. (n=3 independent experiment). FIG. 7B is an autoradiograph of Western blots of CD34 and PSGL-1 immunoprecipitates probed with P-Ig (n=3). FIG. 7C is an autoradiograph of Western blots of E-Ig immunoprecipitates of E-sels from KG1 lysate that were eluted with 30 mM EDTA. The eluate was then immunoprecipitated with CD34-mAbs (4H11 and 581) prior to Western blot analysis with CD34, E-Ig, and P-Ig (n=2 independent experiments). FIG. 7D is a bar graph of Bound cells/field for adherent CHO-P cells. CD34 immunoprecipitates were prepared from CD34^pos-BM and KG1a lysates and spotted on glass slides to test for CHO-P binding using a Stamper-Woodruff assay. n=2 independent experiments. FIG. 7E is a bar graph of # of rolling cells per field showing Adhesion bar graph representing results obtained for the blot-rolling assay using CHO-P cell rolling at 0.25 dyne/cm² (rolling cells/field) over Western blots of immunoprecipitated CD34, CD44, CD43, or PSGL-1 from KG1a cell lysates. EDTA was used as a buffer (gray bars) or CHO-M cells (white bars). […] The resulting proteins were analyzed by Western blot for P-Ig binding.

[10] = molecular target: B1; assay: SPR; CD34 captured on 563-mAb against PSGL-1 captured on KPL-1-mAb
[11] = molecular target: B1; assay: SPR; CD34 captured from KG1a lysate on 563-mAb, P-Ig injected, 2 mM CaCl2, 25 C; steady-state model; mean
[12] = molecular target: T1, PSGL-1, native glycoprotein from human …; assay: SPR; PSGL-1 captured from KG1a lysate on KPL-1-mAb, P-Ig injected, 2 mM CaCl2, 25 C; steady-state model; mean
[13] = molecular target: B1; assay: SPR; CD34 captured from KG1a lysate on 563-mAb; apparent association rate
[14] = molecular target: T1, PSGL-1, native glycoprotein from human …; assay: SPR; PSGL-1 captured from KG1a lysate on KPL-1-mAb; apparent rate constant; exponent printed as 10^4, read as 10^-4
[15] = molecular target: T1, PSGL-1, native glycoprotein from human …; assay: SPR, steady-state fit of consecutive P-Ig injections (labels 5.6 to 1000 under the steps) in CaCl2 over PSGL-1 captured from KG1a lysate on KPL-1-mAb, 150 mM NaCl; the run shown; no rise in the P-Ig/EDTA step
[16] = molecular target: T1, PSGL-1, native glycoprotein from human …; assay: SPR; PSGL-1 captured from KG1a lysate on KPL-1-mAb; apparent association rate
[17] = molecular target: B1; assay: SPR, steady-state fit of consecutive P-Ig injections (labels 5.6 to 1000 under the steps) in CaCl2 over CD34 captured from KG1a lysate on 563-mAb, 150 mM NaCl; the run shown; no rise in the P-Ig/EDTA step
[18] = molecular target: B1; assay: SPR; CD34 captured from KG1a lysate on 563-mAb; apparent rate constant

Sequence of CD44 (HCELL), native glycoprotein from human HSPCs (KG1a, CD34^pos fraction) (human) (P16070 21-742): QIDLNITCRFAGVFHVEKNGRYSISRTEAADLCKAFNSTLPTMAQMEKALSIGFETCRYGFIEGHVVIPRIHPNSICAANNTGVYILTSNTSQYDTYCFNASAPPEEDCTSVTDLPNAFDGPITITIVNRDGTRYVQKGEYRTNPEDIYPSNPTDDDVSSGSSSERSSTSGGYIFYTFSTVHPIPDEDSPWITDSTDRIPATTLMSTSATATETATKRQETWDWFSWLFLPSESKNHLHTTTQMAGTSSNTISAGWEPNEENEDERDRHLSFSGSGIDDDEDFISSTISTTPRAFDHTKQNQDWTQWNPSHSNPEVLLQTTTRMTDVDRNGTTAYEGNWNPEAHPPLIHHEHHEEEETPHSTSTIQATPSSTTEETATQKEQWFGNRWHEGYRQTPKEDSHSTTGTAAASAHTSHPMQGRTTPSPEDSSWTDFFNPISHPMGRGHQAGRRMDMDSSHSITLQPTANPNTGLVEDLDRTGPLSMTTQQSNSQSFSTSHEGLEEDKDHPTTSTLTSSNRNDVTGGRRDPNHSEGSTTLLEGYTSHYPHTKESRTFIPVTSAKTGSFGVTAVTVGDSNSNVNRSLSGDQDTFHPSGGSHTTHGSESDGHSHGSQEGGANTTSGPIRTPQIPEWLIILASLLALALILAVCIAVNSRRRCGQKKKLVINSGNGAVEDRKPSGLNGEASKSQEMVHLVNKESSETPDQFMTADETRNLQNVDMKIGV

For CD44-mAb Hermes-3 (antibody), the koff [1] was 5e-05 s⁻¹, the RUmax at the end of the lysate injection [2] was 559 RU and the ligand-capturing efficiency [3] was 20.2%.

“E-selectin expressed on CHO-E cells (receptor)” was tested, and the bound cells (bound cells/field) [4] was 26 and the bound cells (bound cells/field) [5] was 14.

“recombinant E-selectin human immunoglobulin chimeric protein (Fc fusion)” showed a fold reduction in RUmax against the control lysate [6] of 1.4 fold.

In the case of “P-selectin expressed on CHO-P cells (receptor)”, the bound cells per field (bound cells per field) [7] is reported as 41 and the bound cells per field (bound cells per field) [8] is reported as 8.

B1: no binding [9].

B2: Recombinant P-selectin human immunoglobulin chimeric protein (Fc fusion)
chain: WTYHYSTKAYSWNISRKYCQNRYTDLVAIQNKNEIDYLNKVLPYYSSYYWIGIRKNNKTWTWVGTKKALTNEAENWADNEPNNKRNNEDCVEIYIKSPSAPGKWNDEHCLKKKHALCYTASCQDMSCSKQGECLETIGNYTCSCYPGFYGPECEYVRECGELELPQHVLMNCSHPLGNFSFNSQCSFHCTDGYQVNGPSKLECLASGIWTNKPPQCLAAQCPPLKIPERGNMTCLHSAKAFQHQSSCSFSCEEGFALVGPEVVQCTASGVWTAPAPVCKAVQCQHLEAPSEGTMDCVHPLTAFAYGSSCKFECQPGYRVRGLDMLRCIDSGHWSAPLPTCEAISCEPLESPVHGSMDCSPSLRAFQYDTNCSFRCAEGFMLRGADIVRCDNLGQWTAPAPVCQALQCQDLPVPNEARVNCSHPFGAFRYQSVCSFTCNEGLLLVGASVLQCLATGNWNSVPPECQAIPCTPLLSPQNGTMTCVQPLGSSSYKSTCQFICDEGYSLSGPERLDCTRSGRWTDSPPMCEAIKCPELFAPEQGSLDCSDTRGEFNVGSTCHFSCDNGFKLEGPNNVECTTSGRWSATPPTCKGIASLPTPGVQCPALTTPGQGTMYCRHHPGTFGFNTTCYFGCNAGFTLIGDSTLSCRPSGQWTAVTPACRAVKCSELHVNKPIAMNCSNLWGNFSYGSICSFHCLEGQLLNGSAQTACQENGHWSTTVPTCQAGPLTIQEA
With B2 the “fold weaker KD than P-Ig to PSGL-1” value [10] was ~1.7 fold, the Kd [11] was 621 nM and the Kd [12] was 372 nM. The kon [13] was 452 M⁻¹ s⁻¹, the koff [14] was 0.0002 s⁻¹ and the Kd [15] was ~373 nM. For the same molecule, the kon [16] was 474 M⁻¹ s⁻¹, the Kd [17] was ~622 nM and the koff [18] was 0.0003 s⁻¹.
